Test results taken from PMC7041945, “Misfolded proteins bind and activate death receptor 5 to trigger apoptosis during unresolved endoplasmic reticulum stress” (eLife, 2020).

Experiments:
HCT116 cells [1] = test: Trypan blue staining, automated cell counting; assay type: cell-based, Homo sapiens; design: key to Trypan blue- / Trypan blue+ / avg Trypan blue- / avg Trypan blue+: % of cells (Trypan blue positive or negative); conditions: for avg Trypan blue+ / avg Trypan blue-: avg of Rep 1-3; for Dead concentration / Live concentration / Total Concentration / Viability (%): BF
Description: Cells seeded in a 6-well plate were transfected with the specified plasmid for 24 hr and harvested via trypsinization in complete media and ultimately resuspended in 400 μl of media to obtain a concentration of 1.0–3.0 × 10^6 cells/ml. The cell suspension was then mixed 1:1 with 0.4% Trypan blue (Sigma-Aldrich) and incubated at 37°C for 30 min. The percentage of cells staining positive for was then quantified using the Countess II FL Automated Cell Counter (ThermoFisher, catalog # AMQAF1000) default brightfield settings with disposable slides.

HCT116 cells [2] = test: Annexin V (and SytoxBlue) flow cytometry for apoptosis; assay type: cell-based, Homo sapiens; conditions: for Mean ± SEM (Fig 1S2D): n=3
Description: Cells seeded in a 6-well plate were transfected with the specified plasmid for 24 hr and harvested via trypsinization in complete media to allow a 30 min recovery at 37°C. The samples were then centrifuged at 500xg for 5 min and resuspended In 150 μl of a 1:20 dilution of Annexin V-AlexaFluor 647 conjugate (Thermo Scientific #A23204). Samples were transferred to a 96-well U-bottom plate and incubated in the dark for 15 min at RT. The distribution of apoptotic cells was determined by flow cytometry on a BD LSR II.

[3] = hct chop 62, biological replicate 1 (05.22.2019)
[4] = hct chop 125 (ng), biological replicate 1 (05.22.2019)
[5] = hct chop 125 (ng), biological replicate 2 (05.24.2019)
[6] = hct chop 125 (ng), biological replicate 3 (05.24.2019)
[7] = hct chop 250 (ng), biological replicate 1 (05.22.2019)
[8] = hct chop 250 (ng), biological replicate 2 (05.24.2019)
[9] = hct chop 250 (ng), biological replicate 3 (05.24.2019)
[10] = hct chop 500 (ng), biological replicate 1 (05.22.2019)
[11] = hct chop 500 (ng), biological replicate 2 (05.24.2019)
[12] = hct chop 500 (ng), biological replicate 3 (05.24.2019)
[13] = hct chop 1000 (ng), biological replicate 1 (05.24.2019)
[14] = hct chop 1000 (ng), biological replicate 2 (05.24.2019)
[15] = hct chop 1000 (ng), biological replicate 3 (05.24.2019)

B1: CHOP: CHOP (canonical isoform) expression vector, expression of CHOP in absence of ER stress (protein, UniProt P35638 1-169, looked up)
DNA damage-inducible …: MAAESLPFSFGTLSSWELEAWYEDLQEVLSSDENGGTYVSPPGNEEEESKIFTTLDPASLAWLTEEEPEPAEVTSTSQSPHSPDSSQSSLAQEEEEEDQGRTRKRKQSGHSPARAGKQRMKEKEQENERKVAQLAEENERLKQEIERLTREVEATRRALIDRMVNLHQA
modifications: expression vector
notes: CHOP (canonical isoform) expression vector, expression of CHOP in absence of ER stress
Q: B1 was tested. Which “Trypan blue+” value (HCT116 cells [1]; CHOP - 125 ng, Rep 1) did it give?
A: 4.216

Q: What about the Trypan blue- (HCT116 cells [1]; CHOP - 125 ng, Rep 1) of the same molecule?
A: 95.7841

Q: And the “Trypan blue+” value (HCT116 cells [1]; CHOP - 125 ng, Rep 2)?
A: 3.766

Q: What about the Trypan blue- (HCT116 cells [1]; CHOP - 125 ng, Rep 2) of the same molecule?
A: 96.2338

Q: What about the “Trypan blue+” value (HCT116 cells [1]; CHOP - 125 ng, Rep 3) of the same molecule?
A: 4.155

Q: What about the Trypan blue- (HCT116 cells [1]; CHOP - 125 ng, Rep 3) of the same molecule?
A: 95.8447

Q: What about the “avg Trypan blue+” value (HCT116 cells [1]; CHOP - 125 ng) of the same molecule?
A: 4.046

Q: What about the “avg Trypan blue-” value (HCT116 cells [1]; CHOP - 125 ng) of the same molecule?
A: 95.9542

Q: What about the “Trypan blue+” value (HCT116 cells [1]; CHOP - 250 ng, Rep 1) of the same molecule?
A: 6.303

Q: And the Trypan blue- (HCT116 cells [1]; CHOP - 250 ng, Rep 1)?
A: 93.6968

Q: And the “Trypan blue+” value (HCT116 cells [1]; CHOP - 250 ng, Rep 2)?
A: 12.2829

Q: And the Trypan blue- (HCT116 cells [1]; CHOP - 250 ng, Rep 2)?
A: 87.7171

Q: What about the “Trypan blue+” value (HCT116 cells [1]; CHOP - 250 ng, Rep 3) of the same molecule?
A: 5.723

Q: And the Trypan blue- (HCT116 cells [1]; CHOP - 250 ng, Rep 3)?
A: 94.2771

Q: What about the “avg Trypan blue+” value (HCT116 cells [1]; CHOP - 250 ng) of the same molecule?
A: 8.103

Q: And the “avg Trypan blue-” value (HCT116 cells [1]; CHOP - 250 ng)?
A: 91.897

Q: And the “Trypan blue+” value (HCT116 cells [1]; CHOP - 500 ng, Rep 1)?
A: 14.1844

Q: And the Trypan blue- (HCT116 cells [1]; CHOP - 500 ng, Rep 1)?
A: 85.8156

Q: And the “Trypan blue+” value (HCT116 cells [1]; CHOP - 500 ng, Rep 2)?
A: 6.367

Q: And the Trypan blue- (HCT116 cells [1]; CHOP - 500 ng, Rep 2)?
A: 93.633

Q: And the “Trypan blue+” value (HCT116 cells [1]; CHOP - 500 ng, Rep 3)?
A: 6.466

Q: What about the Trypan blue- (HCT116 cells [1]; CHOP - 500 ng, Rep 3) of the same molecule?
A: 93.534

Q: What about the “avg Trypan blue+” value (HCT116 cells [1]; CHOP - 500 ng) of the same molecule?
A: 9.006

Q: What about the “avg Trypan blue-” value (HCT116 cells [1]; CHOP - 500 ng) of the same molecule?
A: 90.9942

Q: What about the “Trypan blue+” value (HCT116 cells [1]; CHOP - 1000 ng, Rep 1) of the same molecule?
A: 8.481

Q: What about the Trypan blue- (HCT116 cells [1]; CHOP - 1000 ng, Rep 1) of the same molecule?
A: 91.5194

Q: What about the “Trypan blue+” value (HCT116 cells [1]; CHOP - 1000 ng, Rep 2) of the same molecule?
A: 6.72

Q: What about the Trypan blue- (HCT116 cells [1]; CHOP - 1000 ng, Rep 2) of the same molecule?
A: 93.2796

Q: What about the “Trypan blue+” value (HCT116 cells [1]; CHOP - 1000 ng, Rep 3) of the same molecule?
A: 4.533

Q: What about the Trypan blue- (HCT116 cells [1]; CHOP - 1000 ng, Rep 3) of the same molecule?
A: 95.4674

Q: And the “avg Trypan blue+” value (HCT116 cells [1]; CHOP - 1000 ng)?
A: 6.578

Q: What about the “avg Trypan blue-” value (HCT116 cells [1]; CHOP - 1000 ng) of the same molecule?
A: 93.4221

Q: And the “PARP cleavage and trypan blue staining vs misfolded-protein stress” value (HCT116 cells [1]; comparable CHOP-induced DR5 protein, no ER stress)?
A: drastically lower levels of PARP cleavage and trypan blue staining

Q: And the Dead concentration (HCT116 cells [1]; [3])?
A: 1.35E+05

Q: What about the Live concentration (HCT116 cells [1]; [3]) of the same molecule?
A: 2.23E+06

Q: What about the “Total Concentration” value (HCT116 cells [1]; [3]) of the same molecule?
A: 2.36E+06

Q: And the “Viability (%)” value (HCT116 cells [1]; [3])?
A: 94.2928%

Q: What about the Dead concentration (HCT116 cells [1]; [4]) of the same molecule?
A: 1.47E+05

Q: What about the Live concentration (HCT116 cells [1]; [4]) of the same molecule?
A: 3.33E+06

Q: And the “Total Concentration” value (HCT116 cells [1]; [4])?
A: 3.48E+06

Q: And the “Viability (%)” value (HCT116 cells [1]; [4])?
A: 95.7841%

Q: What about the Dead concentration (HCT116 cells [1]; [5]) of the same molecule?
A: 3.40E+05

Q: And the Live concentration (HCT116 cells [1]; [5])?
A: 8.69E+06

Q: What about the “Total Concentration” value (HCT116 cells [1]; [5]) of the same molecule?
A: 9.03E+06

Q: And the “Viability (%)” value (HCT116 cells [1]; [5])?
A: 96.2338%

Q: And the Dead concentration (HCT116 cells [1]; [6])?
A: 8.03E+05

Q: What about the Live concentration (HCT116 cells [1]; [6]) of the same molecule?
A: 1.85E+07

Q: What about the “Total Concentration” value (HCT116 cells [1]; [6]) of the same molecule?
A: 1.93E+07

Q: And the “Viability (%)” value (HCT116 cells [1]; [6])?
A: 95.8447%

Q: And the Dead concentration (HCT116 cells [1]; [7])?
A: 2.17E+05

Q: And the Live concentration (HCT116 cells [1]; [7])?
A: 3.23E+06

Q: And the “Total Concentration” value (HCT116 cells [1]; [7])?
A: 3.44E+06

Q: And the “Viability (%)” value (HCT116 cells [1]; [7])?
A: 93.6968%

Q: And the Dead concentration (HCT116 cells [1]; [8])?
A: 5.81E+05

Q: And the Live concentration (HCT116 cells [1]; [8])?
A: 4.15E+06

Q: What about the “Total Concentration” value (HCT116 cells [1]; [8]) of the same molecule?
A: 4.73E+06

Q: And the “Viability (%)” value (HCT116 cells [1]; [8])?
A: 87.7171%

Q: What about the Dead concentration (HCT116 cells [1]; [9]) of the same molecule?
A: 6.69E+05

Q: And the Live concentration (HCT116 cells [1]; [9])?
A: 1.10E+07

Q: And the “Total Concentration” value (HCT116 cells [1]; [9])?
A: 1.17E+07

Q: And the “Viability (%)” value (HCT116 cells [1]; [9])?
A: 94.2771%

Q: And the Dead concentration (HCT116 cells [1]; [10])?
A: 3.52E+05

Q: And the Live concentration (HCT116 cells [1]; [10])?
A: 2.13E+06

Q: What about the “Total Concentration” value (HCT116 cells [1]; [10]) of the same molecule?
A: 2.48E+06

Q: And the “Viability (%)” value (HCT116 cells [1]; [10])?
A: 85.8156%

Q: What about the Dead concentration (HCT116 cells [1]; [11]) of the same molecule?
A: 2.99E+05

Q: What about the Live concentration (HCT116 cells [1]; [11]) of the same molecule?
A: 4.40E+06

Q: What about the “Total Concentration” value (HCT116 cells [1]; [11]) of the same molecule?
A: 4.70E+06

Q: And the “Viability (%)” value (HCT116 cells [1]; [11])?
A: 93.633%

Q: And the Dead concentration (HCT116 cells [1]; [12])?
A: 3.40E+05

Q: And the Live concentration (HCT116 cells [1]; [12])?
A: 4.92E+06

Q: What about the “Total Concentration” value (HCT116 cells [1]; [12]) of the same molecule?
A: 5.26E+06

Q: And the “Viability (%)” value (HCT116 cells [1]; [12])?
A: 93.534%

Q: What about the Dead concentration (HCT116 cells [1]; [13]) of the same molecule?
A: 2.82E+05

Q: And the Live concentration (HCT116 cells [1]; [13])?
A: 3.04E+06

Q: And the “Total Concentration” value (HCT116 cells [1]; [13])?
A: 3.32E+06

Q: What about the “Viability (%)” value (HCT116 cells [1]; [13]) of the same molecule?
A: 91.5194%

Q: And the Dead concentration (HCT116 cells [1]; [14])?
A: 2.93E+05

Q: And the Live concentration (HCT116 cells [1]; [14])?
A: 4.07E+06

Q: And the “Total Concentration” value (HCT116 cells [1]; [14])?
A: 4.36E+06

Q: And the “Viability (%)” value (HCT116 cells [1]; [14])?
A: 93.2796%

Q: And the Dead concentration (HCT116 cells [1]; [15])?
A: 1.88E+05

Q: And the Live concentration (HCT116 cells [1]; [15])?
A: 3.95E+06

Q: And the “Total Concentration” value (HCT116 cells [1]; [15])?
A: 4.14E+06

Q: What about the “Viability (%)” value (HCT116 cells [1]; [15]) of the same molecule?
A: 95.4674%

Q: And the Difference between means (HCT116 cells [2]; CHOP - 125 ng vs. empty, Welch's correction)?
A: 0.4983 ± 1.264

Q: What about the “Mean ± SEM (Fig 1S2D)” value (HCT116 cells [2]; CHOP - 125 ng) of the same molecule?
A: 4.046 ± 0.1409, n=3

Q: And the Difference between means (HCT116 cells [2]; CHOP - 250 ng vs. CHOP - 125 ng, Welch's correction)?
A: 4.057 ± 2.101

Q: And the “Mean ± SEM (Fig 1S2D)” value (HCT116 cells [2]; CHOP - 250 ng)?
A: 8.103 ± 2.097, n=3

Q: What about the Difference between means (HCT116 cells [2]; CHOP - 500 ng vs. CHOP - 125 ng, Welch's correction) of the same molecule?
A: 4.960 ± 2.593

Q: And the Difference between means (HCT116 cells [2]; CHOP - 500 ng vs. CHOP - 250 ng, unpaired t test)?
A: 0.9028 ± 3.332

Q: What about the Difference between means (HCT116 cells [2]; CHOP - 500 ng vs. MPZ-GFP, unpaired t test) of the same molecule?
A: -28.90 ± 5.936

Q: What about the Difference between means (HCT116 cells [2]; CHOP - 500 ng vs. empty, unpaired t test) of the same molecule?
A: 5.458 ± 2.878

Q: And the “Mean ± SEM (Fig 1S2D)” value (HCT116 cells [2]; CHOP - 500 ng)?
A: 9.006 ± 2.589, n=3
